Test results: IntAct's records for PubMed 17986610

What was measured:
[1] = target: plk1_xenla plk1 (UniProt P70032)
[2] = target: trcb_xenla fbxw1 (UniProt Q91854)
Sequence of trcb_xenla fbxw1 (Q91854 whole entry): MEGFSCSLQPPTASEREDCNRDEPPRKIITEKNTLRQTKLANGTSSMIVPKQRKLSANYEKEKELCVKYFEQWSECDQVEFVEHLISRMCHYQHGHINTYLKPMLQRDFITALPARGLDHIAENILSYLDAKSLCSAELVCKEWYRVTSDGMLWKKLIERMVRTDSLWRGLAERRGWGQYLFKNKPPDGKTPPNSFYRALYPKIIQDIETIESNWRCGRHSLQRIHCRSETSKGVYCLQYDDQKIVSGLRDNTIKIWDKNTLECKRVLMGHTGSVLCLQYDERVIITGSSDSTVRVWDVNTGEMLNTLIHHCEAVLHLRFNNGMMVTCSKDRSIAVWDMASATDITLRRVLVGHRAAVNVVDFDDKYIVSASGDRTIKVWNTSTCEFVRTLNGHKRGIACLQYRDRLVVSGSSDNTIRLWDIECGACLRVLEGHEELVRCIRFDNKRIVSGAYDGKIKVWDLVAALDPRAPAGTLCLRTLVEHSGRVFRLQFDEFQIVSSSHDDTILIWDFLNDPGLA

Sequence of plk1_xenla plk1 (P70032 whole entry): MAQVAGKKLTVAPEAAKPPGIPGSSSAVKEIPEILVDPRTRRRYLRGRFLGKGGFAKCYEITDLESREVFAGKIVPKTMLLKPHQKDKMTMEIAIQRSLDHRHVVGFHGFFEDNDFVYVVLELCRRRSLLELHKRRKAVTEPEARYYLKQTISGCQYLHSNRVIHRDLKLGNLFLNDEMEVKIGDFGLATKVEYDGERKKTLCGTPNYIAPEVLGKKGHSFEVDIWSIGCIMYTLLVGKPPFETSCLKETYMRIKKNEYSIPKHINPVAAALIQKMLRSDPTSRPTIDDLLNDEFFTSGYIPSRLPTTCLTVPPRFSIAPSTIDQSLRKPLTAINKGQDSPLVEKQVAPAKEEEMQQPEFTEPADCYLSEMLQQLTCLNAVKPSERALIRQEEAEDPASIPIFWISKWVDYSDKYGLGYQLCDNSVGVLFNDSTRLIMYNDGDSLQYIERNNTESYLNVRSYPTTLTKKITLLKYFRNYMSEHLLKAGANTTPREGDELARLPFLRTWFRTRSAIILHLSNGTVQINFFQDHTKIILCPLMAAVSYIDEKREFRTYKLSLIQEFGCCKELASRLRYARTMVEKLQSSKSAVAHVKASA
Sequence of Cytoplasmic polyadenylation element-binding protein 1-A (Xenopus laevis (African clawed frog)), Q91572 T125A (Q91572 whole entry T125A): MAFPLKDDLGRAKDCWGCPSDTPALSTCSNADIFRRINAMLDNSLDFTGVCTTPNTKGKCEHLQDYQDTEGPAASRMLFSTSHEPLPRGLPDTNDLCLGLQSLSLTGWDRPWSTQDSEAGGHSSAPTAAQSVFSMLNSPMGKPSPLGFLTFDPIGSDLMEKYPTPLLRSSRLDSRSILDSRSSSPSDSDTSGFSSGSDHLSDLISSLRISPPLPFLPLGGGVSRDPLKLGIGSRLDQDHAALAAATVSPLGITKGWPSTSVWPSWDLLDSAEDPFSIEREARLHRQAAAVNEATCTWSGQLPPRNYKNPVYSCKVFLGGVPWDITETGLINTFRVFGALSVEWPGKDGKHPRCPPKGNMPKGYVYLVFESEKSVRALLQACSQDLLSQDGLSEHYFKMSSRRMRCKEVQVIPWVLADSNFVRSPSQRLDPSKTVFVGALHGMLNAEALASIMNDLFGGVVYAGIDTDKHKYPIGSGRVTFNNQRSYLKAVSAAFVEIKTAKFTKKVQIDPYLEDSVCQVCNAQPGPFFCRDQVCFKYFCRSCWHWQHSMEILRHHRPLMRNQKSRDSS
Sequence of Cytoplasmic polyadenylation element-binding protein 1-A (Xenopus laevis (African clawed frog)), Q91572 G192A (Q91572 whole entry G192A): as the sequence (Q91572 whole entry T125A) above, with A125T, G192A counted along it

effect of a mutation on the interaction [1]	effect of a mutation on the interaction [2]	Substance
decreasing interaction	–	Cytoplasmic polyadenylation element-binding protein 1-A (Xenopus laevis (African clawed frog)), Q91572 T125A
–	decreasing interaction	Cytoplasmic polyadenylation element-binding protein 1-A (Xenopus laevis (African clawed frog)), Q91572 G192A
